The target in assay [1] is human lymphotoxin (TNFβ) (human) (UniProt P01374). In words: cell-based or functional assay.
For assay [2], the target named is human tumor necrosis factor-α (TNFα) (human) (UniProt P01375). Description: cell-based or functional assay.

Results on 2 molecules are retold here after US20070009524A1.

Sequence of human tumor necrosis factor-α (TNFα) (human) (P01375 77-233): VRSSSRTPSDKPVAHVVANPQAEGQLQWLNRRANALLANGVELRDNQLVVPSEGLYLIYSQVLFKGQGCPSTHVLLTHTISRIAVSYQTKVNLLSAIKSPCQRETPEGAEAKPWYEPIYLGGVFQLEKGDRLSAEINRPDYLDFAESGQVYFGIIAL
Sequence of human lymphotoxin (TNFβ) (human) (P01374 35-205 limits assumed): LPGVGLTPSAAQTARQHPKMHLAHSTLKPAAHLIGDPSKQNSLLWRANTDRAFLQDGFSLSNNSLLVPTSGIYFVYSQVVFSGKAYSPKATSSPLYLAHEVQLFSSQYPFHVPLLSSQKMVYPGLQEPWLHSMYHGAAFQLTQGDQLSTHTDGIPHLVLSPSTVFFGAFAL

In assay [1], “p75P-sf2 fusion protein (from UniProt P20333 23-204) (Fc fusion)” registered a concentration to half-inhibit human TNFβ at 2 pM (WEHI 164 cytotoxicity) of 31 pM.

B1: chimeric mouse/human IgG1 anti-platelet mAb (7E3) (antibody, INN chains, looked up, V domains shown)
VH: EVQLQQSGTVLARPGASVKMSCEASGYTFTNYWMHWVKQRPGQGLEWIGAIYPGNSDTSYIQKFKGKAKLTAVTSTTSVYMELSSLTNEDSAVYYCTLYDGYYVFAYWGQGTLVTVSA
VL: EIVLTQSPVTLSVTPGDSVSLSCRASRDISNNLHWFQQTSHESPRLLIKYASQSMSGIPSRFSGSGSGTDFTLSINSVETEDFGMYFCQQTNSWPYTFGGGTKLEIK
modifications: chimeric IgG1
In assay [2], B1 yielded an IL-6 secreted by FS-4 fibroblasts, TNF 0.3 ng/ml, 4 µg/ml antibody of 1.6 ng/mL; an IL-6 secreted by FS-4 fibroblasts, TNF 1.5 ng/ml, 4 µg/ml antibody of 1.96 ng/mL; an IL-6 secreted by FS-4 fibroblasts, TNF 7.5 ng/ml, 4 µg/ml antibody of 2.16 ng/mL.
